Assay results from patent US20060177432.

Tested on: T1, 6xHis-PEBP (recombinant mouse PEBP with a 6xHis-tag at the N-terminus)
T1 sequence: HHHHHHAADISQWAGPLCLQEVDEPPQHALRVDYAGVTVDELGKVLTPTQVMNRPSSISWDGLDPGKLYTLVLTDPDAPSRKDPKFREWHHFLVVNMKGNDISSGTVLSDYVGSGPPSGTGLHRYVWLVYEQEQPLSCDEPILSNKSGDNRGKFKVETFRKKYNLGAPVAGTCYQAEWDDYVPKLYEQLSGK

tissue plasminogen activator, sequence (P00750 36-562): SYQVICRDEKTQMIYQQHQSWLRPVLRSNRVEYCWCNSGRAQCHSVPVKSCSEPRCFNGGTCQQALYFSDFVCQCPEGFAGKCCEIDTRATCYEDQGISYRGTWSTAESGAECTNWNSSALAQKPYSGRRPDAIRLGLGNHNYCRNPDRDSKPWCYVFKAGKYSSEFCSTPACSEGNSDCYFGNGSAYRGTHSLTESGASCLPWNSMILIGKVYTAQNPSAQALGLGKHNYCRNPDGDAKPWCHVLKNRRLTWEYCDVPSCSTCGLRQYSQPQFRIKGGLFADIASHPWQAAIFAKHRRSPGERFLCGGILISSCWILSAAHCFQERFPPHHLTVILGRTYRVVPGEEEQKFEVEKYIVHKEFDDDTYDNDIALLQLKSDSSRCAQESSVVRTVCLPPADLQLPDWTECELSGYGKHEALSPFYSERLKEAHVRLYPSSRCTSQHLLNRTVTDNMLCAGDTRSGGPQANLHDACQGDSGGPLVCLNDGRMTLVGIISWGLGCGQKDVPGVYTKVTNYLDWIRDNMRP
trypsin, sequence (P00760 24-246): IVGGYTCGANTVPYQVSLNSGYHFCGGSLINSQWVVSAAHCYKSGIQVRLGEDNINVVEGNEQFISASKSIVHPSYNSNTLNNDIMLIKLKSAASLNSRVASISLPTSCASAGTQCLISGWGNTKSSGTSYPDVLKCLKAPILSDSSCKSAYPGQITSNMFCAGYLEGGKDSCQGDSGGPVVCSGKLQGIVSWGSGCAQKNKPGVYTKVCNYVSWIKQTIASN
pancreatic elastase, sequence (P00772 27-266): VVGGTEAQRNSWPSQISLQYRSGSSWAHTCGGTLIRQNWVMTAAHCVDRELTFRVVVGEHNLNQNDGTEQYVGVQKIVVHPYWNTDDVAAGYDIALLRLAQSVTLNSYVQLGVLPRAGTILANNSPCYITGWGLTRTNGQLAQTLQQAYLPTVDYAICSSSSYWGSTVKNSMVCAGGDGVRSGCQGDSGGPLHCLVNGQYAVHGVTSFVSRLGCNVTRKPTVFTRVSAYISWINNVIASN

Substance	amidolytic activity (chromogenic substrate, 405 nm)
pancreatic elastase	The amidolytic activities of ... pancreatic elastase (4 pmol) were not affected
tissue plasminogen activator	The amidolytic activities of ... tissue plasminogen activator (0.5 pmol) ... were not affected
trypsin	The amidolytic activities of trypsin (0.005 pmol) ... were not affected
